Reference: the supplement of paper PMC12042874
± gives the uncertainty stated by the source.

experiment: amyloid nucleation score (Sup35N fusion, yeast selection) (log enrichment); library NNK3; higher = more nucleation; inactive = no reads after selection
Method in brief: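 For the nucleation score, DiMSum gave the log enrichment of output over input reads, centred on the mode score of non-aggregating sequences. Psi-negative yeast expressing Sup35N fused to peptides of 20 random codons were induced with 100 μM copper sulfate for 24 hours and grown 7 days at 30°C on medium lacking adenine and uracil. Input and output plasmid inserts were Illumina-sequenced, and sequences with under 100 input reads were excluded.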

Row | Substance | amyloid nucleation score
1 | NRLWSYMGTVLFNPFWLVWR | inactive
2 | NRRKLYKGSCGLTFRGSRER | inactive
3 | NRSEEIFVSSATELTRLIVH | inactive
4 | NRSSKWVISYRATICLLPMD | inactive
5 | NRWIRLLNAISWGYLRMLMV | inactive
6 | NSCQGE | inactive
7 | NSCTDSGPMGTSFSCTLGF | inactive
8 | NSFSRINKDIISSNSVG | inactive
9 | NSGAA | inactive
10 | NSGIFFLVMTSKLNAVLCLA | inactive
11 | NSIFSVFIGMMPCLGSMENI | 3.1 ± 0.081
12 | NSISSSRIAVNFAKYGNWDV | inactive
13 | NSLDSRMYGI | inactive
14 | NSPNTNVPGFSRGAFAGGRH | inactive
15 | NSRNMVNGHLH | inactive
16 | NSSNVFVLIVCMYWKFSYSC | inactive
17 | NSTYSSF | inactive
18 | NSVIGVFQLESSRRGLWDFI | 1.52 ± 0.11
19 | NSVPRGMAFFLNAFFSLIYY | inactive
20 | NSVVF | inactive
21 | NSWVNSPFNLS | inactive
22 | NTCSCTGFTFAAGDV | -0.33 ± 0.39
23 | NTEITQLSIVLFCILYQYSV | 1.46 ± 0.11

Row | Substance | amyloid nucleation score
24 | NTMLKSVMVFWRMLDFRFRL | inactive
25 | NTSAPSNATAAFKAITN | inactive
26 | NTVSHMY | inactive
27 | NTWILNC | inactive
28 | NTWISMVCLLLLSDSNHTVV | 1.84 ± 0.082
29 | NTWRYN | inactive
30 | NVCGNDGNR | inactive
31 | NVCRLRIFRSVYLLGYYTST | inactive
32 | NVDGKLVD | inactive
33 | NVFLSRFMVMRKMVWFTEF | inactive
34 | NVFNFRVDSSDHPPVSAWWD | inactive
35 | NVGITMGCNRTPCLSTWFAV | inactive
36 | NVPGLSCNTSARLWRSSRLS | inactive
37 | NVRGEENVKNILSGVL | inactive
38 | NVRNLGRSFNWMSSCGNLCD | inactive
39 | NVRVFFVSYVL | 0.885 ± 0.11
40 | NVVLSVGMFLLKWS | 1.31 ± 0.09
41 | NVVSWVNHACGWRDRSATMS | inactive
42 | NVWDMEEERWNLKAILTMWA | inactive
43 | NVWLNGWIVGMGYNNWHILW | 1.93 ± 0.072
44 | NVWQFRFANRSCWFRLDIVC | inactive
45 | NVYNMYS | 0.945 ± 0.22
46 | NVYTYIRPRRVYK | inactive

Row | Substance | amyloid nucleation score
47 | NWDMAFNYNLTAFSPKGTNS | inactive
48 | NWDRTIMCMYY | 2.08 ± 0.075
49 | NWFRMFIGFNSCAIRRIIWD | inactive
50 | NWFSSQS | inactive
51 | NWFWLF | inactive
52 | NWGLIMVSVEEDTDLGGSGM | -0.114 ± 0.88
53 | NWGVVYYISSCNGNSSHLSS | 1.83 ± 0.097
54 | NWIRS | inactive
55 | NWRPV | inactive
56 | NWRQNEPYSPGSKSLGWHSF | inactive
57 | NYALWFANI | inactive
58 | NYDKCSDPRRRRRLFFHLYD | inactive
59 | NYDVPSDLRWEMLWVAYCRR | inactive
60 | NYGYRRPVMILPVHR | inactive
61 | NYHTFSYCI | inactive
62 | NYMVFNIGVGCFTISNTK | 3.14 ± 0.069
63 | NYRWTWPMPTQEALTPNSDS | inactive
64 | NYVGSSPGVGSRYTCLKSNV | inactive
65 | NYYSGMRLSQNKKTST | 0.701 ± 0.11
66 | PAELGVVSMCGFLGSAAYQE | inactive
67 | PAGWGWSCCFDFLSSISKIY | inactive
68 | PAPMSVFRHVNFFVKFSPSS | inactive
69 | PASLTRDVTMCFQNRWDPLR | inactive

Row | Substance | amyloid nucleation score
70 | PATLQSPISSK | inactive
71 | PATMFI | inactive
72 | PAVPLQSNLRRETTFRAGCL | inactive
73 | PCLSMRSNLRGYTWWSVGGY | 1.11 ± 0.14
74 | PDKVWMYCQHICAVKMSLIC | inactive
75 | PELCQCSHCNLLFLWTYYIA | -0.052 ± 0.98
76 | PELVFPMLADRPVRAQKLPC | inactive
77 | PETWDTRCGV | 0.03 ± 0.88
78 | PFCVMDLSIKWGNMYYFLQT | inactive
79 | PFFCTMITYNGLVYDIFWRG | inactive
80 | PFHGSLDWSTTESAMT | inactive
81 | PFNRVVVHSDAARGCRPCRP | inactive
82 | PFRFVKNLCGATG | inactive
83 | PFWSGMIPIIEDPISGAL | inactive
84 | PGGKVANESMQSSTHDDPGR | inactive
85 | PGKGKELSRASGSRATV | inactive
86 | PGKKL | -0.453 ± 1.4
87 | PGRGLMRLYCYRFEIKTTEP | 0.82 ± 0.23
88 | PGSHNS | inactive
89 | PGVTSMSLSYPGFWVSPS | inactive
90 | PHGNVLVLYDKRVLSCVEWN | 0.428 ± 0.46
91 | PHMQCLINF | inactive
92 | PHSYA | inactive

Row | Substance | amyloid nucleation score
93 | PIAFQRKSSCIKSRESGSVR | inactive
94 | PIFWGSSDDYLCRWTLTMCH | -0.3 ± 0.37
95 | PIGGLEFNMGFRYRVIRVTM | -0.436 ± 1.7
96 | PKEYTRAGNVSSRRGLFYHF | inactive
97 | PKTIRDVYVDGEEHVHFRWR | inactive
98 | PLCVWVWKLRVVFRRLYFEF | inactive
99 | PLFSYLRHSTGCTFAIPNSE | inactive
100 | PLGERRTPSYPVASLP | -0.223 ± 0.88
101 | PLGSLHSATQRYVSRLGILS | inactive
102 | PLHRSE | inactive
103 | PLLIAVQWTMTAGCRSHKLL | -0.781 ± 2.5
104 | PLNDNRRVPAISVFKECQTS | inactive
105 | PLRPKLFFERNGSGYRQNRA | inactive
106 | PLSTITDGLMRSLVTLVGHS | inactive
107 | PLWTPDGPLIGVVFVLSNNV | 1.03 ± 0.15
108 | PMKFQVFGVSQGVR | inactive
109 | PMVISHMGLFFLKVGISR | inactive
110 | PMYTMRVWLMMSS | inactive
111 | PNAIILVQYTYIVGMRGGHS | 1.11 ± 0.08
112 | PNALDRIYSG | inactive
113 | PNCVISSLTFRWVIFSECEP | inactive
114 | PNHELYM | inactive
115 | PNLYIMYGAFKIVLHSPDWG | inactive

Row | Substance | amyloid nucleation score
116 | PNVLLIRVLIERSCKVGWNS | inactive
117 | PPPCKYLPAEVGLLFKSSLG | inactive
118 | PQDKRASACRVWAPNKNGRG | inactive
119 | PRASYMGRSKL | inactive
120 | PRDGVFLVKGDRPC | inactive
121 | PRDNILTPQHV | inactive
122 | PRFMKVRRWYSNLM | inactive
123 | PRFYANRFTVLFLYNLDI | -0.227 ± 1.1
124 | PRISQEDVFARTARVDLGLQ | inactive
125 | PRNRSVGKMLTRINNSFSRA | inactive
126 | PRRMHMGHAVFDIMGTLRSK | 0.9 ± 0.15
127 | PRSCN | inactive
128 | PRSVLINLLHRTHVCCRLFS | inactive
129 | PRSVVMYNNFINWYKTHKYY | 1.62 ± 0.067
130 | PSCSRSVTMWKSRNLFIQLA | inactive
131 | PSDDYGHLVWLTICCNCLD | 1.6 ± 0.079
132 | PSGTFFNSVVYGRWYKLKRK | -0.34 ± 0.93
133 | PSSFKMY | inactive
134 | PSTSVPTDMMRFSIYSLLRS | inactive
135 | PSVFVRVLEKNRDLMMRTAS | inactive
136 | PSVIFRDWFEKMWLDRISVV | inactive
137 | PTELYFHPDI | inactive
138 | PTHLCFLQFTVAIFVSGIRA | 0.851 ± 0.12

Row | Substance | amyloid nucleation score
139 | PTIHGVMGVEPMSYSLL | inactive
140 | PTSKGYVVYKETWVLDRSKM | 1.07 ± 0.17
141 | PTVQCC | inactive
142 | PVDKCRCGGWNLSHLHKLSS | -0.615 ± 1.7
143 | PVHGSKGPSGHVCRQCGFLM | inactive
144 | PVMLGYGMGYSATVVKGCCL | inactive
145 | PVQRTLVRAVSESFR | 0.899 ± 0.13
146 | PVRIEYQ | inactive
147 | PVRSR | inactive
148 | PVSICQFIVSMANFDLCSQG | 1.93 ± 0.068
149 | PVTVFWVTMTSWYVNIRG | inactive
150 | PVYGRIKANLKMGLAGGSWV | inactive
151 | PWALTMRNVLSKYMFGGGLR | inactive
152 | PWDWWVDSACWRRRPVDDPR | inactive
153 | PWKCTWFMALEVFRMYLRSF | inactive
154 | PYARRMWHGVLVRDIGLYTR | inactive
155 | PYCNRWFSDRGSWDVHRSWV | inactive
156 | PYFQFGSSCE | inactive
157 | PYGKFRLNPLD | 0.652 ± 0.17
158 | PYLLMWSA | inactive
159 | PYMWGFIKRWNRNCAGSFAL | inactive
160 | QAKGIRYVGGLTWYNH | inactive
161 | QCHSLYSWNDGWC | inactive
